The values below come from paper PMC13458718, “HSV-1 origin binding protein UL9 forms intermolecular DNA tethers and intramolecular DNA loops” (Nature Communications, 2026).

For series [1], the target named is T1, HSV-1 UL9 (origin-binding protein UL9) (Human alphaherpesvirus 1 strain 17, UniProt P10193).
T1 construct: full ORF from plasmid pCM-UL9, C-terminal 3C-ybbR-TEV-StrepII tag, insect cells (Sf9/High5), StrepTrap and heparin; dimer; tag kept in unlabeled protein, TEV added on atto647N labelling
Kind of series: single-molecule TIRF (ALEX), UL9-atto647N dwell time on oriS DNA. The note with it: 1 mM ATPγS, 20 nM UL9-atto647N, 1 mM MgCl2, pH 7.5; not an affinity constant.

Series [2] addresses T2, UL9 origin-binding protein (Human herpesvirus 1 (HSV-1)) (UniProt P10193).
T2 sequence: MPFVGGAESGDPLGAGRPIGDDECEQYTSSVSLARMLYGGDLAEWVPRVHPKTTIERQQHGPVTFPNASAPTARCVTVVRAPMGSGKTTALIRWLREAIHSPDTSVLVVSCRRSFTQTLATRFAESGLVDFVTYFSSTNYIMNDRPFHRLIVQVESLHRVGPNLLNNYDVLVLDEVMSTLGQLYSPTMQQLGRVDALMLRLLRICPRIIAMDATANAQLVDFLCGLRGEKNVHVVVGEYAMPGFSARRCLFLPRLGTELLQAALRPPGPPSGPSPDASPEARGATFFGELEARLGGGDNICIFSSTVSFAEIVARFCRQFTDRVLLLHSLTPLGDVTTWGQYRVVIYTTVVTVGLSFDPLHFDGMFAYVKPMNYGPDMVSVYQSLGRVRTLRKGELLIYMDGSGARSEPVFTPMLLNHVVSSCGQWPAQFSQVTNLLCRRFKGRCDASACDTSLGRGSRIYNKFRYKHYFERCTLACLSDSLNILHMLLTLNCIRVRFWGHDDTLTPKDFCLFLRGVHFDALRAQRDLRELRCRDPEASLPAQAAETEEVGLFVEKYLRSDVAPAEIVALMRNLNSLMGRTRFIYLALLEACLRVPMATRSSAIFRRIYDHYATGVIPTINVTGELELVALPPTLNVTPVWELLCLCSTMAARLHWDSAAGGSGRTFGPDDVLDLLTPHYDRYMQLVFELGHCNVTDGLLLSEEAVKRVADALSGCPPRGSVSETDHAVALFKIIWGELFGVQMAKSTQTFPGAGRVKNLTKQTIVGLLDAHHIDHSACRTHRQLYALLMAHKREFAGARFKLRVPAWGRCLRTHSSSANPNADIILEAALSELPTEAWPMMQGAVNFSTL
Kind of series: EMSA. The note with it: C6-amino-dT at 5' end of strand 1 and internal (position 10) in strand 2; UL9 buffer: 40 mM Tris-Cl pH 7.5, 50 mM NaCl, 50 mM K-glutamate, 1 mM MgCl2, 0.5 mM DTT, 0.1 mg/ml BSA; EMSA at room temperature, 5 min; TIRF with oxygen …. A general note: Mobility shift assays separate free from complexed probe on a gel.

Series [3] has as its target T3, UL9-atto647N (Human herpesvirus 1 (HSV-1)) (UniProt P10193).
T3 sequence: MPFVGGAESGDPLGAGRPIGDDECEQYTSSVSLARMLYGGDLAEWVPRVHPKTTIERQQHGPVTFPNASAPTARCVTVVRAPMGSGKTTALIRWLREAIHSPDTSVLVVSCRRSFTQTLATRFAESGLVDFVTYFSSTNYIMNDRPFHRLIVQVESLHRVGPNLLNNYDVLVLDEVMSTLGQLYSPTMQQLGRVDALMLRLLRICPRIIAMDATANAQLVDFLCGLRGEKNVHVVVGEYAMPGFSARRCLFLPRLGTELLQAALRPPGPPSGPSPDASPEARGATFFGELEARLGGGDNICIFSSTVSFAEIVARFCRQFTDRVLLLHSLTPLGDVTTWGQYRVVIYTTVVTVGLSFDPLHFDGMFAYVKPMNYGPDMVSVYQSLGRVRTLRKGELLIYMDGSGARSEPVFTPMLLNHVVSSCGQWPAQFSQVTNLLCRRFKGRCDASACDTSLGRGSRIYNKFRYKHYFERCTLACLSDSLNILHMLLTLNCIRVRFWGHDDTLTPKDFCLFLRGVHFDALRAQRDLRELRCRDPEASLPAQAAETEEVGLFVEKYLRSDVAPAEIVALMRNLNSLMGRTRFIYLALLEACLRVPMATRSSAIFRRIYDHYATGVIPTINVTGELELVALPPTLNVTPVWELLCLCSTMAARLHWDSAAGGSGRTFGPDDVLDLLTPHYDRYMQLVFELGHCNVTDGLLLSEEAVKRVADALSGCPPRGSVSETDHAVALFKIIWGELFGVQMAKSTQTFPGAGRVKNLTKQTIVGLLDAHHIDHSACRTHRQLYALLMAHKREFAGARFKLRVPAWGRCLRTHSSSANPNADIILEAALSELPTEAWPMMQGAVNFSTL
Kind of series: single-molecule TIRF/FRET. The note with it: C6-amino-dT at 5' end of strand 1 and internal (position 10) in strand 2; UL9 buffer: 40 mM Tris-Cl pH 7.5, 50 mM NaCl, 50 mM K-glutamate, 1 mM MgCl2, 0.5 mM DTT, 0.1 mg/ml BSA; EMSA at room temperature, 5 min; TIRF with oxygen ….

Series [4] deals with the molecule itself. Kind of series: single-molecule photobleaching steps (prism-TIRF with alternating laser excitation).
Series [5] concerns the target UL9 origin-binding protein (Human herpesvirus 1 (HSV-1), UniProt P10193 1-851). Kind of series: single-molecule TIRF DNA capture; trans tethering to immobilized oriS (30.0 ± 6.9% of molecules); 20 nM UL9, no ATP; UL9 buffer: 40 mM Tris-Cl pH 7.5, 50 mM NaCl, 50 mM K-glutamate, 1 mM MgCl2, 0.5 mM DTT, 0.1 mg/ml BSA; EMSA at room temperature, 5 min; TIRF with oxygen scavenger. The note with it: protein: recombinant; tags: C-terminal 3C-ybbR-TEV-StrepII; chain copies: 2; label: Cy5 on strand 1; strand 1 5' overhang 1 nt (amino-dT).

Consider `Nc1ncnc2c1ncn2[C@@H]1O[C@H](COP(=O)(O)OP(=O)(O)OP(O)(O)=S)[C@@H](O)[C@H]1O` [ATPγS], for which the “τon, avg” value in series [1] worked out at 4.2 ± 0.1 s. As a reminder, the Kd is the constant that tells how readily two partners part at equilibrium. Read a low Kd as higher affinity. “TCCAGTGCTCGCACTTCGCCCTAATAATATATATATATTGGGACGAAGTGCGAACGCTTCGCGTTCTCACTTC / AAAAAAAAATGAAGTGAGAACGCGAAGCGTTCGCACTTCGTCCCAATATATATATATTATTAGGGCGAAGTGCGAGCACTGG [oriS template AM057/AM071]” displayed a K half in series [2] of 13 nM. The results for the Kd in series [2] and in series [3] were 131 nM and 31.9 nM, respectively.

B1: HSV-1 origin-binding protein UL9 labelled at its C-terminus with atto647N through a ybbR-tag (natural protein)
chain: MPFVGGAESGDPLGAGRPIGDDECEQYTSSVSLARMLYGGDLAEWVPRVHPKTTIERQQHGPVTFPNASAPTARCVTVVRAPMGSGKTTALIRWLREAIHSPDTSVLVVSCRRSFTQTLATRFAESGLVDFVTYFSSTNYIMNDRPFHRLIVQVESLHRVGPNLLNNYDVLVLDEVMSTLGQLYSPTMQQLGRVDALMLRLLRICPRIIAMDATANAQLVDFLCGLRGEKNVHVVVGEYAMPGFSARRCLFLPRLGTELLQAALRPPGPPSGPSPDASPEARGATFFGELEARLGGGDNICIFSSTVSFAEIVARFCRQFTDRVLLLHSLTPLGDVTTWGQYRVVIYTTVVTVGLSFDPLHFDGMFAYVKPMNYGPDMVSVYQSLGRVRTLRKGELLIYMDGSGARSEPVFTPMLLNHVVSSCGQWPAQFSQVTNLLCRRFKGRCDASACDTSLGRGSRIYNKFRYKHYFERCTLACLSDSLNILHMLLTLNCIRVRFWGHDDTLTPKDFCLFLRGVHFDALRAQRDLRELRCRDPEASLPAQAAETEEVGLFVEKYLRSDVAPAEIVALMRNLNSLMGRTRFIYLALLEACLRVPMATRSSAIFRRIYDHYATGVIPTINVTGELELVALPPTLNVTPVWELLCLCSTMAARLHWDSAAGGSGRTFGPDDVLDLLTPHYDRYMQLVFELGHCNVTDGLLLSEEAVKRVADALSGCPPRGSVSETDHAVALFKIIWGELFGVQMAKSTQTFPGAGRVKNLTKQTIVGLLDAHHIDHSACRTHRQLYALLMAHKREFAGARFKLRVPAWGRCLRTHSSSANPNADIILEAALSELPTEAWPMMQGAVNFSTL
modifications: atto647N (CoA-conjugated dye, attached by Sfp transferase) on the C-terminal ybbR tag
notes: also called UL9-atto647N; not shown: ybbR, C-terminal, kept; strepII, C-terminal, cleaved
As a reminder, the stoichiometry N is the number of molecules, sites or subunits per partner or assembly. B1: the “stoichiometry N” value in series [4] came to 2.

B2: Cy5-oriS capture DNA AM057/AM058 (dsDNA)
DNA 1: TCCAGTGCTCGCACTTCGCCCTAATAATATATATATATTGGGACGAAGTGCGAACGCTTCGCGTTCTCACTTC
DNA 2: GAAGTGAGAACGCGAAGCGTTCGCACTTCGTCCCAATATATATATATTATTAGGGCGAAGTGCGAGCACTGG
modifications: C6-amino-dT at 5' end of strand 1
As for B2, in series [5], the binding result is recorded as “binds”.
